Assay results taken from US20100151492A1.

Columns and labels:
[1] = target: human PD-1 (human) (UniProt Q15116); assay: cell-based or functional assay
[2] = target: human PD-L1 (human) (UniProt Q9NZQ7); assay: cell-based or functional assay
Chain of UniProt Q9NZQ7 (Q9NZQ7 19-290 limits assumed): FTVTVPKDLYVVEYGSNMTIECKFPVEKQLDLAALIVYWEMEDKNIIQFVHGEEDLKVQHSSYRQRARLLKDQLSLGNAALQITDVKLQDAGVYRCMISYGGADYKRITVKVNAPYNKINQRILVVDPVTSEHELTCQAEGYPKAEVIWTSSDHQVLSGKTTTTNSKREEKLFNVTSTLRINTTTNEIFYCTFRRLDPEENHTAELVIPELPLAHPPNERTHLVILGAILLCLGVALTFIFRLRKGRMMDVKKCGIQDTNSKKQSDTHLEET

Chain of UniProt Q15116 (Q15116 other isoform, or with tags, fused parts or gaps limits assumed): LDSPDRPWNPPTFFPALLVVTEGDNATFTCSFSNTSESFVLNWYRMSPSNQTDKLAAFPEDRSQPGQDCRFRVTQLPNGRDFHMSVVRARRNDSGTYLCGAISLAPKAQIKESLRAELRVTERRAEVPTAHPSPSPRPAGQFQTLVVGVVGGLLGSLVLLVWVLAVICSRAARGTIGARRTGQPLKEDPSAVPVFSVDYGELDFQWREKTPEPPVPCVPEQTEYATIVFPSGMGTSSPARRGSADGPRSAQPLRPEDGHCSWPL

Monoclonal antibody to human PD-1 (EH12, mouse IgG1)
expansion of HCV-specific T cells (frequency of CFSE low tetramer labeled CD8+ T cells after 6 days) [1]: 4 fold

Monoclonal antibody to human PD-L1 (29E.2A3, mouse IgG2b)
expansion of HCV-specific T cells (frequency of CFSE low tetramer labeled CD8+ T cells after 6 days) [2]: 4 fold | fold increase in tetramer+ cells (6-day CFSE proliferation of B*4201 TL9-specific CD8+ T cells) [2]: 10.3 fold | fold increase in the frequency of EBV or CMV-specific CD8 T cells (6-day CFSE proliferation) [2]: < 3.5 fold | percentage of B*4201 TL9-specific CD8+ T cells after 6-day stimulation with peptide [2]: 12.4%
